Assays:
Experiment in all cases: cell-based or functional assay
[1] = biological target: HIV Env of isolate 6240_08_TA5_4622 (clade B) (HIV)
[2] = biological target: HIV Env of isolate 3016.v5.c45 (clade D) (HIV)
[3] = biological target: HIV Env of isolate ZM214M.PL15 (clade C) (HIV)
[4] = biological target: HIV Env of isolate PVO.4 (clade B) (HIV)
[5] = biological target: HIV Env of isolate AC10.0.29 (clade B) (HIV)
[6] = biological target: HIV Env of isolate QH0692.42 (clade B) (HIV)
[7] = biological target: HIV Env of isolate X2088_C9 (clade G) (HIV)
[8] = biological target: HIV Env of isolate Ce704809221_1B3 (clade C) (HIV)
[9] = biological target: HIV Env of isolate 191955_A11 (clade A) (HIV)
[10] = biological target: HIV Env of isolate Ce0682_E4 (clade C) (HIV)
[11] = biological target: HIV Env of isolate 89-F1_2_25 (clade CD) (HIV)
[12] = biological target: HIV Env of isolate A07412M1.vrc12 (clade D) (HIV)
[13] = biological target: HIV Env of isolate T278-50 (clade AG) (HIV)
[14] = biological target: HIV Env of isolate CNE52 (clade BC) (HIV)
[15] = biological target: HIV Env of isolate WEAU_d15_410_5017 (clade B) (HIV)
[16] = biological target: HIV Env of isolate C3347.c11 (clade AE) (HIV)
[17] = biological target: HIV Env of isolate R2184.c04 (clade AE) (HIV)
[18] = biological target: HIV Env of isolate 0330.v4.c3 (clade A) (HIV)
[19] = biological target: HIV Env of isolate TRJO4551.58 (clade B) (HIV)
[20] = biological target: HIV Env of isolate HIV-16055-2.3 (clade C) (HIV)
[21] = biological target: HIV Env of isolate CAAN5342.A2 (clade B) (HIV)
[22] = biological target: HIV Env of isolate CNE8 (clade AE) (HIV)
[23] = biological target: HIV Env of isolate T257-31 (clade AG) (HIV)
[24] = biological target: HIV Env of isolate ZM135M.PL10a (clade C) (HIV)
[25] = biological target: HIV Env of isolate CNE58 (clade BC) (HIV)
[26] = biological target: HIV Env of isolate HIV-16845-2.22 (clade C) (HIV)

Binder | IC50 (µg/ml) with constrains [1] | IC50 (µg/ml) with constrains [2] | IC50 (µg/ml) with constrains [3] | IC50 (µg/ml) with constrains [4] | IC50 (µg/ml) with constrains [5] | IC50 (µg/ml) with constrains [6] | IC50 (µg/ml) with constrains [7] | IC50 (µg/ml) with constrains [8] | IC50 (µg/ml) with constrains [9] | IC80 (µg/ml) with constrains [9] | IC50 (µg/ml) with constrains [10] | IC50 (µg/ml) with constrains [11] | IC50 (µg/ml) with constrains [12] | IC50 (µg/ml) with constrains [13] | IC50 (µg/ml) with constrains [14] | IC50 (µg/ml) with constrains [15] | IC50 (µg/ml) with constrains [16] | IC80 (µg/ml) with constrains [16] | IC50 (µg/ml) with constrains [17] | IC80 (µg/ml) with constrains [17] | other results
ePGDM13 (antibody, V domains shown) VH: QAQLVQSGPEVRKPGTSVKVSCKNPGNTLTTYDLHWVRQVPGQGLQWMGWISHEGDKKVIVERFKAKVTIDWDRSTNTAYLQLSGLTSEDTAVYYCAKGSKHRLRDYALYDEDGALNWAVDVDYLANLEFWGQGTAVTVSS VL: DIVLTQSPLSLSVTPGESASISCKSSHSLQHGDRNNYLAWYVQKPGRSPQLLLDLASERASGVPDRFSGSGSEKDFTLKISRVETEDVGTYYCMQGRESPWTFGQGTKVDIK | 3.16 µg/mL | > 100 µg/mL | > 100 µg/mL | 2.95 µg/mL | 0.194 µg/mL | > 100 µg/mL | 64.1 µg/mL | 0.339 µg/mL | 0.008 µg/mL | 0.033 µg/mL | 0.011 µg/mL | 0.001 µg/mL | 0.029 µg/mL | 1.6 µg/mL | 2.83 µg/mL | 0.003 µg/mL | 0.009 µg/mL | 0.037 µg/mL | 0.005 µg/mL | 0.019 µg/mL | IC50 (µg/ml) with constrains [18]: 0.002 µg/mL; IC80 (µg/ml) with constrains [18]: 0.008 µg/mL; IC50 (µg/ml) with constrains [19]: > 100 µg/mL; IC50 (µg/ml) with constrains [20]: 0.003 µg/mL; IC50 (µg/ml) with constrains [21]: 40.2 µg/mL; IC50 (µg/ml) with constrains [22]: 0.005 µg/mL; IC80 (µg/ml) with constrains [22]: 0.022 µg/mL; IC50 (µg/ml) with constrains [23]: 0.02 µg/mL; IC80 (µg/ml) with constrains [23]: 0.078 µg/mL; IC50 (µg/ml) with constrains [24]: > 100 µg/mL; IC50 (µg/ml) with constrains [25]: 0.003 µg/mL; IC50 (µg/ml) with constrains [26]: > 100 µg/mL
PGDM1400 (antibody, V domains shown) VH: QVHLTQSGPEVRKPGTSVKVSCKAPGNTLKTYDLHWVRSVPGQGLQWMGWISHEGDKKVIVERFKAKVTIDWDRSTNTAYLQLSGLTSGDTAVYYCAKGSKHRLRDYALYDDDGALNWAVDVDYLSNLEFWGQGTAVTVSS VL: DFVLTQSPHSLSVTPGESASISCKSSHSLIHGDRNNYLAWYVQKPGRSPQLLIYLASSRASGVPDRFSGSGSDKDFTLKISRVETEDVGTYYCMQGRESPWTFGQGTKVDIK | 52.4 µg/mL | > 100 µg/mL | > 100 µg/mL | 3.41 µg/mL | 0.549 µg/mL | > 100 µg/mL | > 100 µg/mL | 0.32 µg/mL | 0.013 µg/mL | 0.05 µg/mL | 0.009 µg/mL | 0.003 µg/mL | 0.029 µg/mL | 5.41 µg/mL | > 100 µg/mL | 0.075 µg/mL | 0.015 µg/mL | 0.061 µg/mL | 0.006 µg/mL | 0.022 µg/mL | IC50 (µg/ml) with constrains [18]: 0.004 µg/mL; IC80 (µg/ml) with constrains [18]: 0.016 µg/mL; IC50 (µg/ml) with constrains [19]: > 100 µg/mL; IC50 (µg/ml) with constrains [20]: 0.003 µg/mL; IC50 (µg/ml) with constrains [21]: > 100 µg/mL; IC50 (µg/ml) with constrains [22]: 0.001 µg/mL; IC80 (µg/ml) with constrains [22]: 0.003 µg/mL; IC50 (µg/ml) with constrains [23]: 0.138 µg/mL; IC80 (µg/ml) with constrains [23]: 0.552 µg/mL; IC50 (µg/ml) with constrains [24]: > 100 µg/mL; IC50 (µg/ml) with constrains [25]: 0.003 µg/mL; IC50 (µg/ml) with constrains [26]: > 100 µg/mL
ePGDM5 (antibody, V domains shown) VH: QAQLVQSGPEVRKPGTSVKVSCKNPGNTLTTYDLHWVRQVPGQGLQWMGWISHEGDKKVIVERFKAKVTIDWDRSTNTAYLQLSGLTSEDTAVYYCAKGSKHRLRDYALYDEDGALNWAVDVDYLANLEFWGQGTAVTVSS VL: DFVLTQSPLSLSVTPGESASISCKSDHSLQHGDRNNYLAWYVQKPGRSPQLLIDLASERASGVPDRFSGSGSRKDFTLKIDRVEAEDVGTYYCMQGRESPWTFGQGTKVDIK | 2.02 µg/mL | > 100 µg/mL | > 100 µg/mL | 1.39 µg/mL | 0.275 µg/mL | > 100 µg/mL | 28.6 µg/mL | 0.187 µg/mL | 0.021 µg/mL | 0.083 µg/mL | 0.005 µg/mL | 0.001 µg/mL | 0.009 µg/mL | 1.06 µg/mL | 6.14 µg/mL | 0.001 µg/mL | 0.005 µg/mL | 0.021 µg/mL | 0.004 µg/mL | 0.017 µg/mL | IC50 (µg/ml) with constrains [18]: 0.003 µg/mL; IC80 (µg/ml) with constrains [18]: 0.01 µg/mL; IC50 (µg/ml) with constrains [19]: > 100 µg/mL; IC50 (µg/ml) with constrains [20]: 0.002 µg/mL; IC50 (µg/ml) with constrains [21]: 73 µg/mL; IC50 (µg/ml) with constrains [22]: 0.001 µg/mL; IC80 (µg/ml) with constrains [22]: 0.003 µg/mL; IC50 (µg/ml) with constrains [23]: 0.016 µg/mL; IC80 (µg/ml) with constrains [23]: 0.064 µg/mL; IC50 (µg/ml) with constrains [24]: > 100 µg/mL; IC50 (µg/ml) with constrains [25]: 0.004 µg/mL; IC50 (µg/ml) with constrains [26]: > 100 µg/mL
ePGDM9 (antibody, V domains shown) VH: QAQLVQSGPEVRKPGTSVKVSCKNPGNTLTTYDLHWVRQVPGQGLQWMGWISHEGDKKVIVERFKAKVTIDWDRSTNTAYLQLSGLTSEDTAVYYCAKGSKHRLRDYALYDEDGALNWAVDVDYLANLEFWGQGTAVTVSS VL: DIVLTQSPLSLSVTPGESASISCKSSQSLIHGDRNNYLAWYVQKPGRSPQLLIDLASERASGVPDRFSGSGSRKDFTLKISRVETEDVGTYYCMQGRESPWTFGQGTKVDIK | 1.65 µg/mL | > 100 µg/mL | > 100 µg/mL | 1.93 µg/mL | 0.074 µg/mL | > 100 µg/mL | > 100 µg/mL | 0.135 µg/mL | 0.007 µg/mL | 0.029 µg/mL | 0.005 µg/mL | 0.001 µg/mL | 0.026 µg/mL | 0.506 µg/mL | 1.85 µg/mL | 0.002 µg/mL | 0.003 µg/mL | 0.011 µg/mL | 0.003 µg/mL | 0.011 µg/mL | IC50 (µg/ml) with constrains [18]: 0.003 µg/mL; IC80 (µg/ml) with constrains [18]: 0.01 µg/mL; IC50 (µg/ml) with constrains [19]: > 100 µg/mL; IC50 (µg/ml) with constrains [20]: 0.001 µg/mL; IC50 (µg/ml) with constrains [21]: 17.5 µg/mL; IC50 (µg/ml) with constrains [22]: 0.001 µg/mL; IC80 (µg/ml) with constrains [22]: 0.002 µg/mL; IC50 (µg/ml) with constrains [23]: 0.019 µg/mL; IC80 (µg/ml) with constrains [23]: 0.076 µg/mL; IC50 (µg/ml) with constrains [24]: > 100 µg/mL; IC50 (µg/ml) with constrains [25]: 0.002 µg/mL; IC50 (µg/ml) with constrains [26]: > 100 µg/mL

Reference: US20230134571A1 (INTERNATIONAL AIDS VACCINE INITIATIVE, published 2023)
